Assay results published in PMC2064081.

Target: MIM/IMD-L (IRSp53/MIM domain of mouse missing-in-metastasis, longer splice variant) (mouse) (UniProt Q8R1S4)
Assay: SPR

Sequence of MIM/IMD-L (IRSp53/MIM domain of mouse missing-in-metastasis, longer splice variant) (mouse) (Q8R1S4 1-250, change not shown): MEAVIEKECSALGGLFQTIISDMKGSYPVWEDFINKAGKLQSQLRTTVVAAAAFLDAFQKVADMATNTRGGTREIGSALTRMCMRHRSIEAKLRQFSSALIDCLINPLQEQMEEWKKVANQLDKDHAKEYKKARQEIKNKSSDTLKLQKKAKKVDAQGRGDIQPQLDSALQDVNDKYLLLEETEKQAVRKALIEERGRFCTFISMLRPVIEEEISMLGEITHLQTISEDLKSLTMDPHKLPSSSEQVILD

## GST-Rac (V12), dominant-active Rac (from UniProt P63000 1-192) (natural protein)
  equilibrium binding level relative to MIM/IMD-S: 10 to 15%
